Measured values reported in the DeepSol protein solubility set.

Assay: soluble on expression in E. coli; label from the status in PepcDB or PDB records

MGSDKIHHHHHHMEKVLEIRDLKVYFDLTEGTVKAVDGVSFDIRRGEILGLVGESGCGKSVTAQSILRILPKSARIVNGEIVFHRNGKTLDLTRLDPEGEEIRDIRGKDISMIFQEPMASFSPVYTVGAQMIEAILLHENVSKEEARKRVVEMLKKVKIPNAEKVVDMYPFELSGGMLQRCMIAMAMSLNPTLLLADEPTTALDVTIQAQILYLMKELQKEYHSSILLITHDMGVVAQMADRVAVMYLGNIVETAEVFELFKNPLHPYTQALLRSIPKIGIRKTRLETIKGMVPDPYNLPTGCRFHNRCEKFMKGLCDVKEPPEVEVKPGHKVKCFLYGGEKE
soluble on expression in E. coli: not soluble

MNYLKTSGIVIKEVNTGEADRIITIFSKNKGKISALAKGARRPKSHLVAGTQLLCYSEFVLFKGKDMYTVNSCDVIESFYDIRNDLERLTYAAHMMDIVNDVILENQPASRLLQLFLNSLYMLSKTDRSPLQIVRVFEIRLLSTMGYAPWVSSCIKCGSTVFDSMYFSFLKCGFLCSKCLENDKGALKISEGAAKALNYIVHSKMSNLFSFEVSESVLDELGKVSQRYMKERLEKNYTKLDFIKTLDRIKC
soluble on expression in E. coli: soluble

MSASSERELYEAWVELLSWMREYAQAKGVRFEKEADFPDFIYRMERPYDLPTTIMTASLSDGLGEPFLLADVSPRHAKLKRIGLRLPRAHIHLHAHYEPGKGLVTGKIPLTKERFFALADRAREALAFA
soluble on expression in E. coli: soluble

EFGYSEMSAIGALIKALPESCALHLANSSVIRYAQLYQVPSTIEVCCNRGTSGIEGSLSTAVGYAAGSDKLNFIVIGDLSFFYDMNALWNINVRPNLRILLLNNGGGEIFHTLPGLDMSGTSHKYITAVHKTSAKGWAEERGFLYQRVENEEQLAEAMKTFTQPEAMEQPVLMEVFSN
soluble on expression in E. coli: not soluble

MSLNKAVLHDHLDGGLRAKTAKELAIKDSYKPLIEIEDIESFFNRESSTSLEDYLEAFVHTTALMSNYDNLERIAFEAAEDMMHFCGITLYESRYAPLYSVNNNLLIKDVLHAINSGFKQAENMYGIKSGLILCGMRNDKDNVSQVSEIAIDFKDQIIGFDIAMGPEYNFLPSLFADEFNKLKNNGINLTIHAGEGDGVNSIQDALDNGAKRIGHGVRIIEDIDTSSKKLGKTAEYVRNKQVPLMEVCITSNIHTNMYEEYNKHPIKDLIDLEFNVSINTDNRLMSNTSMKKEIDIAKNLGINNIDRILENSASYSFLNDFEGHHHHHH
soluble on expression in E. coli: soluble

MSLIREAQRSELPAILELWLESTTWGHPFIKANYWRDCIPLVRDAYLANAQNWVWEEDGKLLGFVSIMEGRFLAAMFVAPKAVRRGIGKALMQYVQQRHPHLMLEVYQKNQPAINFYQAQGFHIVDCAWQDETQLPTWIMSWPVVQTLEGGSHHHHHH
soluble on expression in E. coli: soluble

GSHMAPDCSQPLDVILLLDGSSSFPASYFDEMKSFAKAFISKANIGPRLTQVSVLQYGSITTIDVPWNVVPEKAHLLSLVDVMQREGGPSQIGDALGFAVRYLTSEMHGARPGASKAVVILVTDVSVDSVDAAADAARSNRVTVFPIGIGDRYDAAQLRILAGPAGDSNVVKLQRIEDLPTMVTLGNSFLHKLCSG
soluble on expression in E. coli: soluble

MSDNEIVAGIMRDHIINLLKEGKRIDDRGFEDYRPIEIEVGIIEKAEGSALVKLGSTQVLVGIKTTLGEPFPDTPNMGVMTTNVELVPLASPTFEPGPPDERAIELARVTDRGIRESRALNLEKMVIVPGKIVRVVFIDVHVLDHDGNLMDAIGIASIAALLNAKVPKVEYNEETGEVEILEEKEPLPVERIPIPVTFAKIGNILVVDPSLEEELVMDGRLTVTTDETGHISAVQKGEGGAFKLEEVMYAVETAFKKAEEIRKIVLEAIKKSGE
soluble on expression in E. coli: soluble

MRVELFNPSIKKIIVKLSQLKGLWIVQLNLSKNRLSEKKFTDLAVLLSMLKAFGVTYLNLHFNNLGQKTGTELVALFKILKDSGISRLSLSANELYQKTGTELATLLTALSDSDIIQLDLSCNWLGQRQDAELIELFKAWSSTPIIDLDLTNNDLGKKSGIVLSEMFRALKVSSISHLGLRNNDLYQRTGAEFSSLLSAIKDSPVTHLDLSDNGLHLMVAAAFETLFDALKDSSVTHLNLCRNGIGHLDMFQMTAMFCSLQCTGVTHLDLGENSLELMTAEELAAIFQVFKDSRLIHLGLNDSYLNNRTTEDLHLIFNALPANIATIKLSLEELTEMSSEQRQTIQRRFPRAEQVILVNNMEGRELNPSLSLGDANVYRRLGFVGVSPLSLAGLASFFVASNNLRFAREVQKLLPDEVTERIVKNILG
soluble on expression in E. coli: not soluble

MSEMSLIMLAAGNSTRFNTKVKKQFLRLGNDPLWLYATKNLSSFYPFKKIVVTSSNITYMKKFTKNYEFIEGGDTRAESLKKALELIDSEFVMVSDVARVLVSKNLFDRLIENLDKADCITPALKVADTTLFDNEALQREKIKLIQTPQISKTKLLKKALDQNLEFTDDSTAIAAMGGKIWFVEGEENARKLTFKEDLKKLDLPTPSFEIFTGNGFDVHEFGENRPLLLAGVQIHPTMGLKAHSDGDVLAHSLTDAILGAAGLGDIGELYPDTDMKFKNANSMELLKQAYDKVREIGFELINIDICVMAQSPKLKDFKQAMQSNIAHTLDLDEFRINVKATTTEKLGFIGRKEGMAVLSSVNLKYFDWTRL
soluble on expression in E. coli: soluble

DRPFKVGDWIRSPDRQIEGTVERIGWRMTSIRTFDKRPLYVPNSVFSNIVVENPSRMLNRRIYEVVGLRYDDADKVPEIITAVREMLKNHKDIDTRQT
soluble on expression in E. coli: not soluble

MGSDKIHHHHHHMSVLKGSQNVTICNANGLKLAARLELPDIPPRGMAMIAPAFGCTKEILIASRTARRLLQYGIGSLRLDFTGIGQSEGDFSMTNLDTQVEDFVSAADWLRQHVAAPNILIGHSFGGLVALNACHSIPESRACVTIATPESPAHVLEIIGEDKTREIMQGGATSIEVNRQPYVLRRQFADHARQFRLHDTMQRLRVPVLIMHSPRDEMVPMRHAHAIFETARHPKSLLAIEDADHMVSERPAAEFVASTIGLWGMRYLTDG
soluble on expression in E. coli: not soluble

FPSGSAQLSARLYLPAGTPQVAVVINGATGVPREYYQHFATWLAAERGIACLTYDYRDFGHSLRGPLAASTATMSDWALIDMPAAYAEMQRRYPDLPLWVIGHSVGGMLGPLQPGIEPIARMICVCSGLVHHSDHPWPYQALARLFWFGHAPLLVKTLGYLPGRRIGFGSDLPPGVYWEWRRWCTTPGAYLPEMGDRLPQADWSRSGAPVDMFAFEDDTTIPPNCVWRLADVYGETVRRHLLHPRAFGLREIGHLGAFARRNAALWPRLIA
soluble on expression in E. coli: not soluble

MMGFSFYFFNEERYKMDKKDYKINKQNATAAKQQPLSPAAQRALNEAEERRKHETNEEKPLENGGRGGKDPSRYGDWEIKGRAIDFLEHHHHHH
soluble on expression in E. coli: not soluble

MPRRIDKVSSMTKGHITMSMNKLNLFNIYRKDPLQYFGKTLYQQKWAAKTETRNYHGQQIKEKRFKNVLFDSNLKTYSQLDASLKGHDVAPTPITLQTYGTLEKRLEIALFRSMFASSVRQARQFILGGYVKVNGVVIKHPSFPLQSGDVFSVDPEKVLFALGKTKPSLEKALSVDKKQIKKWNNYVFEAKKNPEKIWDLKQNKPDSLDTLKQVEDFEKQKKSVQNAQKLMKIQQNQVTRQSILQEIIQLGNAASEPASLETFNKYGDVARTKCLQIYQTLTNKNHPITKDPSTKNIEGFLAKDENKSPEEKHEVRLINSTLRELQSSEWERIRIQFENFEEGTDTKFFQTSFAKALRGVPKLNKEEILEDESKAKVQLPWQKHLFGRKDPSRSYFTPWTPRPFLGAFAILPSHIEISFDTCHAIYLRDPVARPGHSEVISPFPDHVHERAYMYYVRKGKS
soluble on expression in E. coli: not soluble
